US20230038638A1, “COMPLEMENT FACTOR I-RELATED COMPOSITIONS AND METHODS” (published 2023)
Positions count from the first letter of the chain named.

Columns and labels:
human C4b (human) [1] = biological target: T1, human C4b (human) (UniProt P0C0L4)
T1 sequence: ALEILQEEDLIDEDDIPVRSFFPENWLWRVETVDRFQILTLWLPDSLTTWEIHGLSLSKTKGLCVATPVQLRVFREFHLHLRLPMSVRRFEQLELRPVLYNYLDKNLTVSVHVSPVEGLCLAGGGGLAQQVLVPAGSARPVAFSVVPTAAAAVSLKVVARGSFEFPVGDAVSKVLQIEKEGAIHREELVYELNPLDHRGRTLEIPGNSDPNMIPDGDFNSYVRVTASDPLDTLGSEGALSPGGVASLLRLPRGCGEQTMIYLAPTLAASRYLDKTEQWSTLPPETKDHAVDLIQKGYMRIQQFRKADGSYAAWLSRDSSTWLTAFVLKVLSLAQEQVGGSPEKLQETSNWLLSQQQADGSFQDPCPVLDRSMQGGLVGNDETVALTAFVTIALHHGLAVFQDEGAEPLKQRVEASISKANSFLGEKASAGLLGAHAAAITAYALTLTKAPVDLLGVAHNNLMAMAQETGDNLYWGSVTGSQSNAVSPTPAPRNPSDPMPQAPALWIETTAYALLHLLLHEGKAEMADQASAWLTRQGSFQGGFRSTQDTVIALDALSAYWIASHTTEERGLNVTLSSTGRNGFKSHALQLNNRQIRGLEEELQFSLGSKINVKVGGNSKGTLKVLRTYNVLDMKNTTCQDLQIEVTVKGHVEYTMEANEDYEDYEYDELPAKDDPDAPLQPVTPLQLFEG

human C4b (human) [2] = biological target: T2, human C4b (human) (UniProt P0C0L5)
T2 sequence: T1 sequence with A151T, D317G, P364L, C365S, L368I, D369H, N420S, V451A, L454R, S530A

[3] = biological target: soluble human C3b (human) (UniProt P01024)
human C4b (human) [4] = biological target: T1, human C4b (human); remark: listed apart in the source
[5] = biological target: soluble human C3b (human) (UniProt P01024); remark: listed apart in the source
human C4b (human) [6] = biological target: T2, human C4b (human); remark: listed apart in the source

Substance | C4b Screen Ref Fold (fold of CFI-HSA wild type) (human C4b (human) [1]) | C4b Screen Ref Fold (fold relative to CFI-HSA wild type) (human C4b (human) [2]) | iC3b Screen Ref Fold (fold of CFI-HSA wild type) [3] | iC3b Screen Ref Fold (fold relative to CFI-HSA wild type) [3] | C4c EC50 (nM) (human C4b (human) [4]) | iC3b EC50 [5] [nM] | C4c EC50 (human C4b (human) [6]) [nM] | C4b Screen Ref Fold (fold of reference) (human C4b (human) [1]) | iC3b Screen Ref Fold (fold of reference) [3] | C4c EC50 (human C4b (human) [4]) [nM] | C4b Screen Ref Fold (fold of CFI-HSA wild type) (human C4b (human) [2])
CFI-HSA variant D425K; E457G; E461Q; N531G (enzyme) | 4.26 | 3.28 | 2.07 | 0.09 | 6 | 2.5 | – | – | – | – | –
CFI-HSA variant D425K; E530F (enzyme) | 0.08 | – | 2.17 | – | – | 5.8 | > 1000 | – | – | – | –
CFI-HSA variant D425K; P558S (enzyme) | 0.77 | – | 2.11 | – | – | 7 | 153 | – | – | – | –
CFI-HSA variant D425K; Y408M (enzyme) | 0.19 | – | 1.88 | – | – | 9.4 | > 1000 | – | – | – | –
CFI-HSA variant D425K; Y408M; F537K (enzyme) | 0.09 | – | 1.52 | – | – | 10.8 | > 1000 | – | – | – | –
CFI-HSA variant D425R; E530F; P558G; E457G; E461Q; N531G (enzyme) | 4.13 | – | 0.87 | – | – | – | 5 | – | – | – | –
CFI-HSA variant D425R; P558S; E457G; E461Q; N531G (enzyme) | 4.41 | – | 1.29 | – | – | 4 | 4.6 | – | – | – | –
CFI-HSA variant E457G; E461Q; N422K (enzyme) | 3.61 | – | 2.37 | – | – | 3.5 | 17.2 | – | – | – | –
CFI-HSA variant E461Q; N422K; T377G (enzyme) | 3.96 | – | 2.75 | – | – | 3.6 | 7.9 | – | – | – | –
CFI-HSA variant E530F; P558S; E457G; E461Q; N531G (enzyme) | – | – | – | – | – | 4.8 | 9.1 | – | – | – | –
CFI-HSA variant K504R; D425R; E530F; E457G; E461Q; N531G (enzyme) | 4.2 | – | 1.18 | – | – | – | 7.4 | – | – | – | –
CFI-HSA variant K504R; E530F; P558G; E457G; E461Q; N531G (enzyme) | 3.96 | – | 1.77 | – | – | – | 8.2 | – | – | – | –
CFI-HSA variant N422K; E461Q (enzyme) | 2.54 | – | 2.67 | – | – | 4.1 | 51.1 | – | – | – | –
CFI-HSA variant N531G; E457G; N422K; T377G (enzyme) | 4.39 | – | 1.28 | – | – | 3.2 | 4.2 | – | – | – | –
CFI-HSA variant N531G; E457G; T377G (enzyme) | 4.33 | – | 1.54 | – | – | 4.5 | 2.9 | – | – | – | –
CFI-HSA variant N531G; E461Q; N422K (enzyme) | 4.01 | – | 1.81 | – | – | 3.7 | 7.2 | – | – | – | –
CFI-HSA variant P558S; E457G; E461Q; N531G (enzyme) | 4.21 | – | 1.89 | – | 7.2 | 4.3 | – | – | – | – | –
CFI-HSA variant R456N (enzyme) | – | – | – | – | 920 | 60.5 | – | 0.19 | 0.56 | – | –
CFI-HSA variant R557K; N531M (enzyme) | 2.93 | – | 0.41 | – | – | – | 124 | – | – | – | –
CFI-HSA variant T377G (enzyme) | – | – | – | – | 147 | 16.4 | – | 6.1 | 1.01 | – | –
CFI-HSA variant T377G; E457G; E461Q; F464Y; N531G (enzyme) | 4.08 | – | 2.12 | – | 23.3 | 3.4 | – | – | – | – | –
CFI-HSA variant T377G; Y408L; E457G; E461Q; R462K; N531G (enzyme) | 3.44 | – | 1.06 | – | 6.3 | 6.6 | – | – | – | – | –
CFI-HSA variant W381G (enzyme) | – | – | – | – | – | > 500 | – | 0.32 | 0 | > 1000 | –
CFI-HSA variant Y403F (enzyme) | – | – | – | – | 338 | 47.8 | – | 3.55 | 0.41 | – | –
CFI-HSA variant Y408M (enzyme) | – | – | – | – | 930 | 29.1 | – | 0.17 | 1.21 | – | –

The remaining lines, values ahead:

C4b Screen Ref Fold (fold of CFI-HSA wild type) (human C4b (human) [1]) | C4b Screen Ref Fold (fold relative to CFI-HSA wild type) (human C4b (human) [2]) | iC3b Screen Ref Fold (fold of CFI-HSA wild type) [3] | iC3b Screen Ref Fold (fold relative to CFI-HSA wild type) [3] | C4c EC50 (nM) (human C4b (human) [4]) | iC3b EC50 [5] [nM] | C4c EC50 (human C4b (human) [6]) [nM] | C4b Screen Ref Fold (fold of reference) (human C4b (human) [1]) | iC3b Screen Ref Fold (fold of reference) [3] | C4c EC50 (human C4b (human) [4]) [nM] | C4b Screen Ref Fold (fold of CFI-HSA wild type) (human C4b (human) [2]) | Substance
4.4 | – | 1.08 | – | – | 3.4 | 6.4 | – | – | – | – | CFI-HSA variant D425K; E530F; E457G; E461Q; N531G (enzyme)
0.1 | – | 1.57 | – | – | 14.6 | > 1000 | – | – | – | – | CFI-HSA variant D425K; Y408M; K504R (enzyme)
4.48 | – | 0.99 | – | – | 3.2 | 6.2 | – | – | – | – | CFI-HSA variant D425R; E530F; E457G; E461Q; N531G (enzyme)
4.28 | – | 1.74 | – | – | 2.2 | 5 | – | – | – | – | CFI-HSA variant E457G; E461Q; N422K; T377G (enzyme)
4.25 | – | 2.99 | – | – | 3.5 | 7.5 | – | – | – | – | CFI-HSA variant E457G; N422K; T377G (enzyme)
4.14 | – | 1.58 | – | – | – | 4.8 | – | – | – | – | CFI-HSA variant K504R; D425R; P558G; E457G; E461Q; N531G (enzyme)
4.24 | – | 1.7 | – | – | 2.4 | 5 | – | – | – | – | CFI-HSA variant N531G; E461Q; N422K; T377G (enzyme)
3.37 | – | 0.77 | – | 47.8 | 12 | – | – | – | – | – | CFI-HSA variant T377G; E416A; K504H (enzyme)
4.5 | – | 2.05 | – | 3.5 | 4.2 | – | – | – | – | – | CFI-HSA variant T377G; E457G; E461Q; R462K; F464Y; N531G (enzyme)
3.01 | – | 0.95 | – | 50.1 | 15.7 | – | – | – | – | – | CFI-HSA variant T377G; K504H (enzyme)
4.41 | – | 2.21 | – | 20.4 | 5.1 | – | – | – | – | – | CFI-HSA variant Y408F; E457G; E461Q; R462K; E530Y; N531G; P558S (enzyme)
– | – | – | – | 530 | 49.1 | – | 0.05 | 0.84 | – | – | CFI-HSA variant Y408Q (enzyme)
– | – | 0.73 | – | 855 | 24.6 | – | 1.03 | 1.4 | – | 0.65 | CFI-HSA variant Y563H (enzyme)
